Assay results: article PMC9945957 (Proceedings of the National Academy of Sciences of the …, 2023)

B1: human hemoglobin, heme-loaded (holo-Hb) (complex)
chain 1: not shown
chain 2: not shown

Columns and labels:
[1] = target: T1, Shr^H1H2 (Shr residues S26 to Q285, both HIDs) (Streptococcus pyogenes, UniProt Q99YA0 26-285); experiment: SEC-MALS + other: SEC-SAXS
T1 sequence: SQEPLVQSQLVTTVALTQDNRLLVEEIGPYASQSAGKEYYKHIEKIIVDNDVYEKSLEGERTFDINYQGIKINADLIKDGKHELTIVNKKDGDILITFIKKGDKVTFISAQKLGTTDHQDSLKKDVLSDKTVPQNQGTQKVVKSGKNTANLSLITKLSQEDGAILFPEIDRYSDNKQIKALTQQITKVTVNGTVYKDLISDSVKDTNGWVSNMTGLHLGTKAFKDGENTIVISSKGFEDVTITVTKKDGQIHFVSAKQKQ

[2] = target: B1; experiment: NMR titration

| Binder | stoichiometry N [1] [Shr^H1H2 per Hb tetramer] | binding result [2] |
| --- | --- | --- |
| B1 | 2 | – |
| Shr^H2 M238A (domain or fragment) NLSLITKLSQEDGAILFPEIDRYSDNKQIKALTQQITKVTVNGTVYKDLISDSVKDTNGWVSNATGLHLGTKAFKDGENTIVISSKGFEDVTITVTKKDGQIHFVSAKQKQ | – | binds |
